Test results taken from EP2871189A1, “High-affinity monoclonal anti-strep-tag antibody” (INSTITUT PASTEUR, priority 2013, dated 2015).

Biological target: Strep-Tag II peptide WSHPQFEK (SEQ ID NO:9)
Test: ELISA assay after Friguet et al 1985

- Kd: 0.14 nM
B1: monoclonal antibody C23.21 (antibody, V domains shown)
VH: EVQLEQSGPELVKPGASVKMSCKASGYTFTNYYMKWVKQSHGKSLEWIGDLNPNNGDTFYNQKFKGKATLTVDKSSNTAYMQLNSLTSEDSAVYYCARTGRYEENAMDYWGQGTSVTVSS
VL: ELVMTQSPASLAVSLGQRATISCRASESVDSYGKSFMHWYQLKPGQPPKLLIYRASNLESGVPARFSGSGSRTDFTLTIDPVEADDAATYYCQQNNEDPWTFGGGTKLEIK
